For data set [1], the target named is T1, Rx1(1–489)WT (Solanum tuberosum, UniProt Q9XGF5).
T1 construct: gene rx; CC-NB-ARC region, residues 1-489, LRR domain absent; pET32c, hexahistidine tag
T1 sequence (Q9XGF5 1-489): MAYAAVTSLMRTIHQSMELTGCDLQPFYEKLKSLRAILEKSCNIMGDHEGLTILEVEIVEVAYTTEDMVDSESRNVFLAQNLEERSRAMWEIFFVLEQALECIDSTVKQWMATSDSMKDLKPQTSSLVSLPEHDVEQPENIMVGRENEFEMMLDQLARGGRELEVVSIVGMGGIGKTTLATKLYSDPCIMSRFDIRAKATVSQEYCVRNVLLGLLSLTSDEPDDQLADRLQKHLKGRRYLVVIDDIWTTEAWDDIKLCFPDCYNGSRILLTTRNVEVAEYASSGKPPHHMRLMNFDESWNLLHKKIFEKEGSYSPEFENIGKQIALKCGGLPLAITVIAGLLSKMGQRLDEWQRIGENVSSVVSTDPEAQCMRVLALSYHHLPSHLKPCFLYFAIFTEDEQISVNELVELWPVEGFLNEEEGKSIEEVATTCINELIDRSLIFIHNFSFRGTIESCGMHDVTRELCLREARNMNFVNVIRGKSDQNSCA
As to the kind of experiment: time-resolved FRET of DNA bending. Type of data set: biochemical. The conditions noted are these: 20-bp end-labelled dsDNA (50 nM), 1.5 uM protein, 60 mM NaCl, room temperature; activator of DNA bending, P-loop dependent.

Data set [2] concerns the target T2, Rx1(1-489) WT (CC-NB-ARC) (potato (introgressed from Solanum …, UniProt Q9XGF5 1-489)).
T2 sequence: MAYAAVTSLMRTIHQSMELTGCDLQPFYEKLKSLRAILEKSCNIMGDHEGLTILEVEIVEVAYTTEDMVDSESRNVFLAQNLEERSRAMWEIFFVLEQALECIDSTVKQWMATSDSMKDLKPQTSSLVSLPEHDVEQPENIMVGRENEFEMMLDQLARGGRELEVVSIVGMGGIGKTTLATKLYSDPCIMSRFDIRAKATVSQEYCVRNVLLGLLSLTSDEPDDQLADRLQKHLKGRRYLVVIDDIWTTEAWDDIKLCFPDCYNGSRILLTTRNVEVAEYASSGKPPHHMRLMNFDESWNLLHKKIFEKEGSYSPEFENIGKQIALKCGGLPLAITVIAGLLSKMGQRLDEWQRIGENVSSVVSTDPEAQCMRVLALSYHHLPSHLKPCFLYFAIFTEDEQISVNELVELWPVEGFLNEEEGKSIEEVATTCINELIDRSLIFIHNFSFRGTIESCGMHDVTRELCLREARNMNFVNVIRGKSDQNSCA
The data set can be described thus: EMSA; affinity similar to dsDNA; Kd in Table 1 not in material; EMSA: 0.15 nM 32P nucleic acid, 20 mM Tris-HCl pH 8.0, 60 mM NaCl, 2 mM EDTA, 1 mM DTT, 10% glycerol, 0.1 mg/ml BSA, 20 min on ice; FRET: 1.5 uM protein, 50 nM. The conditions noted are these: protein: recombinant; tags: His6 (pET32c); label: 32P 5' end; single strand. A general note: Mobility shift assays separate free from complexed probe on a gel.

The target in data set [3] is T2, Rx1(1-489) WT (CC-NB-ARC). The data set can be described thus: P1 nuclease sensitivity; no nucleotide; local melting; EMSA: 0.15 nM 32P nucleic acid, 20 mM Tris-HCl pH 8.0, 60 mM NaCl, 2 mM EDTA, 1 mM DTT, 10% glycerol, 0.1 mg/ml BSA, 20 min on ice; FRET: 1.5 uM protein, 50 nM. The conditions noted are these: protein: recombinant; tags: His6 (pET32c); label: 32P 5' end of strand 1; blunt.

Data set [4] has as its target T3, Orc1-1;Orc1-3 (Sulfolobus solfataricus;Sulfolobus …, UniProt Q980N4;Q97WM8 1-397;1-394, |).
T3 sequence 1: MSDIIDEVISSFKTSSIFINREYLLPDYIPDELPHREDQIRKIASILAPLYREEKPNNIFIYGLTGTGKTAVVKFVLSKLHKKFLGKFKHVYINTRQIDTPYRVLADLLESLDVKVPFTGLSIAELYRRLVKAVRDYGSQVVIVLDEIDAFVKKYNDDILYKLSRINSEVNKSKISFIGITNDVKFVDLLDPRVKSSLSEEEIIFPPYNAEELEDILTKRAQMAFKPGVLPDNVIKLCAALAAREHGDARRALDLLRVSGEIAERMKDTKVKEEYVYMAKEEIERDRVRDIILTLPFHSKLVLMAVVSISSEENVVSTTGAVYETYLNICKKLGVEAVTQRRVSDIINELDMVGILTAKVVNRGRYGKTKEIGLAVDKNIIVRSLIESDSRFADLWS
T3 sequence 2: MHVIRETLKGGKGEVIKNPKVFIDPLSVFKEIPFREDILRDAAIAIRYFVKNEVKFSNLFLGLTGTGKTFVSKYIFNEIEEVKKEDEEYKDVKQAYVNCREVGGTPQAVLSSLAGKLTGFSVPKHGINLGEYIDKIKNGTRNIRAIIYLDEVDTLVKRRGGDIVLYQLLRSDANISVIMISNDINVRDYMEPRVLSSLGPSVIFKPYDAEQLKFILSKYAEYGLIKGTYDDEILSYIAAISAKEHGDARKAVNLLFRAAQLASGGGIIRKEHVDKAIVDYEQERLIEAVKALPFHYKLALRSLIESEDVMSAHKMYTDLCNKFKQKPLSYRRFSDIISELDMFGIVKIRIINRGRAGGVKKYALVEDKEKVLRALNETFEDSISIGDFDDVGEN
The data set can be described thus: P1 nuclease sensitivity; sensitivity indistinguishable from Rx1(1-489)WT; EMSA: 0.15 nM 32P nucleic acid, 20 mM Tris-HCl pH 8.0, 60 mM NaCl, 2 mM EDTA, 1 mM DTT, 10% glycerol, 0.1 mg/ml BSA, 20 min on ice; FRET: 1.5 uM protein, 50 nM. The conditions noted are these: protein: recombinant;recombinant; tags: ;; copies: 1;1; label: 32P 5' end of strand 1; blunt.

Data set [5] addresses T2, Rx1(1-489) WT (CC-NB-ARC). The data set can be described thus: time-resolved FRET (bending); no nucleotide; bend angle 42 degrees; EMSA: 0.15 nM 32P nucleic acid, 20 mM Tris-HCl pH 8.0, 60 mM NaCl, 2 mM EDTA, 1 mM DTT, 10% glycerol, 0.1 mg/ml BSA, 20 min on ice; FRET: 1.5 uM protein, 50 nM. The conditions noted are these: protein: recombinant; tags: His6 (pET32c); label: fluorescein donor and tetramethylrhodamine acceptor, end labels; blunt.

For data set [6], the target named is T4, Rx1(1-489) K176R (potato (introgressed from Solanum …, UniProt Q9XGF5 1-489, K176R)).
T4 sequence: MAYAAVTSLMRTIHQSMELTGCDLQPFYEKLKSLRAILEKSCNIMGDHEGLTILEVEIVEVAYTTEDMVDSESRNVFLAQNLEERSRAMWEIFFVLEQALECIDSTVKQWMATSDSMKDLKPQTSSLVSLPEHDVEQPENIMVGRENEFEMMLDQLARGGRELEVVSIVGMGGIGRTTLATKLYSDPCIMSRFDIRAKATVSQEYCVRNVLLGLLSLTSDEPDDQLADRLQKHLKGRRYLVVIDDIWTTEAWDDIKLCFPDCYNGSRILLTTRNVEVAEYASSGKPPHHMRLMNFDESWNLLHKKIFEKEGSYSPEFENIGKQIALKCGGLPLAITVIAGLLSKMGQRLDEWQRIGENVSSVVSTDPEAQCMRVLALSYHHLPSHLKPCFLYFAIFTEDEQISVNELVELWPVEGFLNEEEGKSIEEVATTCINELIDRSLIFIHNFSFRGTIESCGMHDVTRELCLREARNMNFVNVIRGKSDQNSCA
As to the kind of experiment: time-resolved FRET (bending); no nucleotide; bends similarly to WT; EMSA: 0.15 nM 32P nucleic acid, 20 mM Tris-HCl pH 8.0, 60 mM NaCl, 2 mM EDTA, 1 mM DTT, 10% glycerol, 0.1 mg/ml BSA, 20 min on ice; FRET: 1.5 uM protein, 50 nM. The conditions noted are these: protein: recombinant; tags: His6 (pET32c); label: fluorescein donor and tetramethylrhodamine acceptor, end labels; blunt.

In data set [7] the target is T2, Rx1(1-489) WT (CC-NB-ARC). The data set can be described thus: EMSA; apparent Kd in Table 1 (values not in material); text: submicromolar; EMSA: 0.15 nM 32P nucleic acid, 20 mM Tris-HCl pH 8.0, 60 mM NaCl, 2 mM EDTA, 1 mM DTT, 10% glycerol, 0.1 mg/ml BSA, 20 min on ice; FRET: 1.5 uM protein, 50 nM. The conditions noted are these: protein: recombinant; tags: His6 (pET32c); label: 32P 5' end; blunt.

For data set [8], the target named is T2, Rx1(1-489) WT (CC-NB-ARC). As to the kind of experiment: EMSA; higher affinity than dsDNA or ssRNA; Kd in Table 1 not in material; EMSA: 0.15 nM 32P nucleic acid, 20 mM Tris-HCl pH 8.0, 60 mM NaCl, 2 mM EDTA, 1 mM DTT, 10% glycerol, 0.1 mg/ml BSA, 20 min on ice; FRET: 1.5 uM protein, 50 nM. The conditions noted are these: protein: recombinant; tags: His6 (pET32c); label: 32P 5' end; single strand.

For data set [9], the target named is T2, Rx1(1-489) WT (CC-NB-ARC). The data set can be described thus: EMSA; higher affinity than F12-ds/ss; EMSA: 0.15 nM 32P nucleic acid, 20 mM Tris-HCl pH 8.0, 60 mM NaCl, 2 mM EDTA, 1 mM DTT, 10% glycerol, 0.1 mg/ml BSA, 20 min on ice; FRET: 1.5 uM protein, 50 nM. The conditions noted are these: protein: recombinant; tags: His6 (pET32c); label: 32P 5' end of strand 1; fork 1:2, two single-stranded arms.

For `Nc1ncnc2c1ncn2[C@@H]1O[C@H](COP(=O)(O)OP(=O)(O)OP(=O)(O)O)[C@@H](O)[C@H]1O` [ATP], the “time-resolved FRET of DNA bending” value in [1] is reported as “Notably ATP, but not ADP, strongly increased the contribution of the 129-ps lifetime”.
Turning to UGGGUCAACGUGGGCAAAGAUGUCCUAGCAAUGUAAUCGUCUAUGACGUU (ssRNA) [SS1 ssRNA], in data set [2], the binding result is on record as “binds”.

B1: C3/mORB dual site of oriC2 (dsDNA)
DNA 1: CTCAATACAATTGTCTCTGTGTAAATTTCCTACGTTTCATCTGAAAATCTAGCTATTAGAGCTTGGTTTA
DNA 2: TAAACCAAGCTCTAATAGCTAGATTTTCAGATGAAACGTAGGAAATTTACACAGAGACAATTGTATTGAG
Regarding B1, the binding result in data set [3] and in [4] was “binds” throughout.

B2: 20-bp FRET duplex (dsDNA)
DNA 1: TGGGTCAACGTGGGCAAAGA
DNA 2: TCTTTGCCCACGTTGACCCA
Turning to B2, the binding result in [5] and in data set [6] was “binds” throughout.

B3: SS1/SS2 dsDNA (dsDNA)
DNA 1: TGGGTCAACGTGGGCAAAGATGTCCTAGCAATGTAATCGTCTATGACGTT
DNA 2: AACGTCATAGACGATTACATTGCTAGGACATCTTTGCCCACGTTGACCCA
As for B3, the binding result in data set [7] is reported as “binds”.
Take TGGGTCAACGTGGGCAAAGATGTCCTAGCAATGTAATCGTCTATGACGTT (ssDNA) [SS1 ssDNA]: the binding result in [8] is “binds”.

B4: F12-ss/ss (structured_DNA)
DNA 1: GACGCTGCCGAATTCTGGCTTGCTAGGACATCTTTGCCCACGTTGACCC
DNA 2: TGGGTCAACGTGGGCAAAGATGTCCTAGCAATGTAATCGTCTATGACGTT
For B4, in [9], the binding result is “binds”.

Values taken from publication PMC4599002, “The Potato Nucleotide-binding Leucine-rich Repeat (NLR) Immune Receptor Rx1 Is a Pathogen-dependent DNA-deforming Protein” (The Journal of Biological Chemistry, 2015).
